# Test results from patent US20180311359A1 (TRACON PHARMACEUTICALS, published 2018).
# T1: CD105 (endoglin) (UniProt P17813 26-586, limits assumed)
# T1 construct: Soluble protein captured on the plate
# T1 sequence (looked up): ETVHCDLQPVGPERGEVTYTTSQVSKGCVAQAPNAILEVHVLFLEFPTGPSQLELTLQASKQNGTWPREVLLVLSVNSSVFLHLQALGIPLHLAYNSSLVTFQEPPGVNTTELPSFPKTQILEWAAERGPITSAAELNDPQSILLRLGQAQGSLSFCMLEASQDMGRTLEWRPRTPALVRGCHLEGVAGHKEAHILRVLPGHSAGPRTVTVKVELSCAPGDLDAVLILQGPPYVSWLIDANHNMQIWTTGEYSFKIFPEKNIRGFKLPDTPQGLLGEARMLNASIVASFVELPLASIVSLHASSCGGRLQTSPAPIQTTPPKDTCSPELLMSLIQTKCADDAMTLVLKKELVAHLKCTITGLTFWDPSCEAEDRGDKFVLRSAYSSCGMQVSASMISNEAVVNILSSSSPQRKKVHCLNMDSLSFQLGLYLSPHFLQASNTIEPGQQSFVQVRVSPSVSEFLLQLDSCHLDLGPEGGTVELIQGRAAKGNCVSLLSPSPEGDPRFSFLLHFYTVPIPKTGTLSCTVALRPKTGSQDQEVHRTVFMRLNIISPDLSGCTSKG
# Experiments:
# CD105 (endoglin) [1] = target: T1, CD105 (endoglin); assay: CD105 binding ELISA; F03 (pH 4.0, 20 mM acetate, 240 mM sorbitol, 25 mg/ml), 5 C, initial
# CD105 (endoglin) [2] = target: T1, CD105 (endoglin); assay: CD105 binding ELISA; F05 (pH 4.0, 20 mM acetate, 240 mM trehalose, 50 mg/ml), 5 C, initial
# CD105 (endoglin) [3] = target: T1, CD105 (endoglin); assay: CD105 binding ELISA; F02 (pH 5.5, 20 mM histidine, 240 mM sorbitol, 25 mg/ml), 5 C, initial
# CD105 (endoglin) [4] = target: T1, CD105 (endoglin); assay: CD105 binding ELISA; F03 (pH 4.0, 20 mM acetate, 240 mM sorbitol, 25 mg/ml), 5 C, 12 months
# CD105 (endoglin) [5] = target: T1, CD105 (endoglin); assay: CD105 binding ELISA; F07 (pH 4.0, 20 mM acetate, 240 mM trehalose, 100 mg/ml), 5 C, initial
# CD105 (endoglin) [6] = target: T1, CD105 (endoglin); assay: CD105 binding ELISA; F01 (pH 5.5, 20 mM histidine, 240 mM trehalose, 25 mg/ml), 5 C, initial
# CD105 (endoglin) [7] = target: T1, CD105 (endoglin); assay: CD105 binding ELISA; F02 (pH 5.5, 20 mM histidine, 240 mM sorbitol, 25 mg/ml), 5 C, 6 months
# CD105 (endoglin) [8] = target: T1, CD105 (endoglin); assay: CD105 binding ELISA; F04 (pH 5.5, 20 mM histidine, 240 mM trehalose, 50 mg/ml), 5 C, initial
# CD105 (endoglin) [9] = target: T1, CD105 (endoglin); assay: CD105 binding ELISA; F05 (pH 4.0, 20 mM acetate, 240 mM trehalose, 50 mg/ml), 5 C, 12 months
# CD105 (endoglin) [10] = target: T1, CD105 (endoglin); assay: CD105 binding ELISA; F01 (pH 5.5, 20 mM histidine, 240 mM trehalose, 25 mg/ml), 5 C, 6 months
# CD105 (endoglin) [11] = target: T1, CD105 (endoglin); assay: CD105 binding ELISA; F02 (pH 5.5, 20 mM histidine, 240 mM sorbitol, 25 mg/ml), 5 C, 12 months
# CD105 (endoglin) [12] = target: T1, CD105 (endoglin); assay: CD105 binding ELISA; F04 (pH 5.5, 20 mM histidine, 240 mM trehalose, 50 mg/ml), 5 C, 6 months
# CD105 (endoglin) [13] = target: T1, CD105 (endoglin); assay: CD105 binding ELISA; F06 (pH 5.5, 20 mM histidine, 240 mM trehalose, 100 mg/ml), 5 C, initial
# CD105 (endoglin) [14] = target: T1, CD105 (endoglin); assay: CD105 binding ELISA; F07 (pH 4.0, 20 mM acetate, 240 mM trehalose, 100 mg/ml), 5 C, 12 months
# CD105 (endoglin) [15] = target: T1, CD105 (endoglin); assay: CD105 binding ELISA; F01 (pH 5.5, 20 mM histidine, 240 mM trehalose, 25 mg/ml), 5 C, 12 months
# CD105 (endoglin) [16] = target: T1, CD105 (endoglin); assay: CD105 binding ELISA; F04 (pH 5.5, 20 mM histidine, 240 mM trehalose, 50 mg/ml), 5 C, 12 months
# CD105 (endoglin) [17] = target: T1, CD105 (endoglin); assay: CD105 binding ELISA; F06 (pH 5.5, 20 mM histidine, 240 mM trehalose, 100 mg/ml), 5 C, 6 months
# CD105 (endoglin) [18] = target: T1, CD105 (endoglin); assay: CD105 binding ELISA; F06 (pH 5.5, 20 mM histidine, 240 mM trehalose, 100 mg/ml), 5 C, 12 months
# CD105 (endoglin) [19] = target: T1, CD105 (endoglin); assay: CD105 binding ELISA; TRC105 4 mg/mL in 17 mM phosphate, 145 mM NaCl, pH 7.2 (Lot FIN-0536), 2-8 C, initial
# CD105 (endoglin) [20] = target: T1, CD105 (endoglin); assay: CD105 binding ELISA; TRC105 4 mg/mL in 17 mM phosphate, 145 mM NaCl, pH 7.2 (Lot FIN-0536), 2-8 C, 6 months
# CD105 (endoglin) [21] = target: T1, CD105 (endoglin); assay: CD105 binding ELISA; TRC105 4 mg/mL in 17 mM phosphate, 145 mM NaCl, pH 7.2 (Lot FIN-0536), 2-8 C, 9 months
# CD105 (endoglin) [22] = target: T1, CD105 (endoglin); assay: CD105 binding ELISA; TRC105 4 mg/mL in 17 mM phosphate, 145 mM NaCl, pH 7.2 (Lot FIN-0536), 2-8 C, 12 months
# CD105 (endoglin) [23] = target: T1, CD105 (endoglin); assay: CD105 binding ELISA; TRC105 4 mg/mL in 17 mM phosphate, 145 mM NaCl, pH 7.2 (Lot FIN-0536), 2-8 C, 18 months
# CD105 (endoglin) [24] = target: T1, CD105 (endoglin); assay: CD105 binding ELISA; TRC105 4 mg/mL in 17 mM phosphate, 145 mM NaCl, pH 7.2 (Lot FIN-0536), 2-8 C, 24 months
# CD105 (endoglin) [25] = target: T1, CD105 (endoglin); assay: CD105 binding ELISA; TRC105 4 mg/mL in 17 mM phosphate, 145 mM NaCl, pH 7.2 (Lot FIN-0536), 2-8 C, 30 months
# CD105 (endoglin) [26] = target: T1, CD105 (endoglin); assay: CD105 binding ELISA; TRC105 4 mg/mL in 17 mM phosphate, 145 mM NaCl, pH 7.2 (Lot FIN-0536), 2-8 C, 36 months
# CD105 (endoglin) [27] = target: T1, CD105 (endoglin); assay: CD105 binding ELISA; TRC105 4 mg/mL in 17 mM phosphate, 145 mM NaCl, pH 7.2 (Lot FIN-0536), 25 C/60% RH, 1 month
# CD105 (endoglin) [28] = target: T1, CD105 (endoglin); assay: CD105 binding ELISA; TRC105 4 mg/mL in 17 mM phosphate, 145 mM NaCl, pH 7.2 (Lot FIN-0536), 25 C/60% RH study, initial (same initial value as in Table 18)
binder,measurement,setting,value
"TRC105 (an anti-CD105 antibody) (antibody, human IgG1, kappa, V domains shown, each chain is built here as variable plus constant region; The same antibody was tested in different formulations and after different storage times; also called Lot FIN-0536) VH: EVKLEESGGGLVQPGGSMKLSCAASGFTFSDAWMDWVRQSPEKGLEWVAEIRSKASNHATYYAESVKGRFTISRDDSKSSVYLQMNSLRAEDTGIYYCTRWRRFFDSWGQGTTLTVSS VL: QIVLSQSPAILSASPGEKVTMTCRASSSVSYMHWYQQKPGSSPKPWIYATSNLASGVPVRFSGSGSGTSYSLTISRVEAEDAATYYCQQWSSNPLTFGAGTKLELKR",Percent Relative CD105 Binding Potency,CD105 (endoglin) [1],124 % relative to reference standard
same,Percent Relative CD105 Binding Potency,CD105 (endoglin) [2],179 % relative to reference standard
same,Percent Relative CD105 Binding Potency,CD105 (endoglin) [3],90 % relative to reference standard
same,Percent Relative CD105 Binding Potency,CD105 (endoglin) [4],77 % relative to reference standard
same,Percent Relative CD105 Binding Potency,CD105 (endoglin) [5],100 % relative to reference standard
same,Percent Relative CD105 Binding Potency,CD105 (endoglin) [6],101 % relative to reference standard
same,Percent Relative CD105 Binding Potency,CD105 (endoglin) [7],90 % relative to reference standard
same,Percent Relative CD105 Binding Potency,CD105 (endoglin) [8],123 % relative to reference standard
same,Percent Relative CD105 Binding Potency,CD105 (endoglin) [9],96 % relative to reference standard
same,Percent Relative CD105 Binding Potency,CD105 (endoglin) [10],94 % relative to reference standard
same,Percent Relative CD105 Binding Potency,CD105 (endoglin) [11],69 % relative to reference standard
same,Percent Relative CD105 Binding Potency,CD105 (endoglin) [12],97 % relative to reference standard
same,Percent Relative CD105 Binding Potency,CD105 (endoglin) [13],93 % relative to reference standard
same,Percent Relative CD105 Binding Potency,CD105 (endoglin) [14],86 % relative to reference standard
same,Percent Relative CD105 Binding Potency,CD105 (endoglin) [15],68 % relative to reference standard
same,Percent Relative CD105 Binding Potency,CD105 (endoglin) [16],74 % relative to reference standard
same,Percent Relative CD105 Binding Potency,CD105 (endoglin) [17],95 % relative to reference standard
same,Percent Relative CD105 Binding Potency,CD105 (endoglin) [18],115 % relative to reference standard
same,CD105 Binding by ELISA (binding activity relative to reference standard),CD105 (endoglin) [19],88 % relative to reference standard
same,CD105 Binding by ELISA (binding activity relative to reference standard),CD105 (endoglin) [20],110 % relative to reference standard
same,CD105 Binding by ELISA (binding activity relative to reference standard),CD105 (endoglin) [21],104 % relative to reference standard
same,CD105 Binding by ELISA (binding activity relative to reference standard),CD105 (endoglin) [22],91 % relative to reference standard
same,CD105 Binding by ELISA (binding activity relative to reference standard),CD105 (endoglin) [23],88 % relative to reference standard
same,CD105 Binding by ELISA (binding activity relative to reference standard),CD105 (endoglin) [24],136 % relative to reference standard
same,CD105 Binding by ELISA (binding activity relative to reference standard),CD105 (endoglin) [25],88 % relative to reference standard
same,CD105 Binding by ELISA (binding activity relative to reference standard),CD105 (endoglin) [26],105 % relative to reference standard
same,CD105 Binding by ELISA (binding activity relative to reference standard),CD105 (endoglin) [27],91 % relative to reference standard
same,CD105 Binding by ELISA (binding activity relative to reference standard),CD105 (endoglin) [28],88 % relative to reference standard
